Results published in publication PMC4703070, “cryo-EM structures of the E. coli replicative DNA polymerase reveal its dynamic interactions with the DNA sliding clamp, exonuclease and τ” (eLife, 2015).

Experiments:
[1] = target: T1, E. coli DNA polymerase III α with improved clamp binding motif (PolIIIα^QLDLF) (E. coli, UniProt P10443 1-1160, 920-924 QADMF to QLDLF); assay: cryo-EM structure; four-protein complex assembled at 15 μM, gel filtration in 25 mM Hepes pH 7.5, 50 mM potassium glutamate, 3 mM magnesium acetate, 2 mM DTT; peak fraction (~4 μM) with 20 μM 25 bp DNA substrate; DNA-free (8.3 Å), DNA-bound (8.0 Å) and DNA-bound without tail (7.3 Å) classes from a single data set; crystal and NMR structures fitted as rigid bodies; settings: both partners purified
T1 construct: DNA polymerase III subunit α (PolIIIα), E. coli; It says that His-tags were removed with 3C protease but not which of the proteins carried one; PDB 2HNH lacks the C-terminal tail; source: E. coli (DE3) BL21, purified (as described in Toste Rêgo et al., 2013)

[2] = target: T2, Pol IV (Escherichia coli, UniProt Q47155 1-351); assay: EMSA; 2.5 μM protein, 5 nM DNA; EMSA: 20 mM Tris pH 7.5, 4% glycerol, 5 mM DTT, 40 μg/ml BSA, 40 mM K glutamate, 10 min room temperature, native 6% gel; cryo-EM: 25 mM Hepes pH 7.5, 50 mM K glutamate, 3 mM Mg acetate, 2 mM DTT, ~4 μM complex + 20 μM DNA, room temperature, then Tween 20; settings: protein: recombinant; label: 6-FAM at 5' end of primer strand; 25 bp duplex, 5' overhang 4 nt on template strand
T2 sequence: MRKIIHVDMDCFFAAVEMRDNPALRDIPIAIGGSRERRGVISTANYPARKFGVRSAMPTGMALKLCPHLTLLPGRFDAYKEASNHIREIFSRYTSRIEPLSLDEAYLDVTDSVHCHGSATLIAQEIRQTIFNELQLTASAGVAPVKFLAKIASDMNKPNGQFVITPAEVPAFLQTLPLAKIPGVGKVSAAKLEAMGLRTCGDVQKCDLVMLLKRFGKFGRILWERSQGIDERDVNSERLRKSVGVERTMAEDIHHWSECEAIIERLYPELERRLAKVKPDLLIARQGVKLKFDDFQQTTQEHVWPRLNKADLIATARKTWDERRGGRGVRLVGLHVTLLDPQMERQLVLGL

[3] = target: Pol I (Klenow fragment) (Escherichia coli, UniProt P00582 324-928); assay: as above; settings: protein: recombinant; label: 6-FAM at 5' end of primer strand; 25 bp duplex, 5' overhang 4 nt on template strand
[4] = target: T3, E. coli DNA sliding clamp β (E. coli, UniProt P0A988 1-366); assay: cryo-EM structure; four-protein complex assembled at 15 μM, gel filtration in 25 mM Hepes pH 7.5, 50 mM potassium glutamate, 3 mM magnesium acetate, 2 mM DTT; peak fraction (~4 μM) with 20 μM 25 bp DNA substrate; DNA-free (8.3 Å), DNA-bound (8.0 Å) and DNA-bound without tail (7.3 Å) classes from a single data set; crystal and NMR structures fitted as rigid bodies; settings: both partners purified
T3 construct: DNA polymerase III β subunit (DNA sliding clamp), E. coli; dimeric; It says that His-tags were removed with 3C protease but not which of the proteins carried one; also called β subunit; source: E. coli (DE3) BL21, purified (as described in Toste Rêgo et al., 2013)

[5] = target: PolIIIα (clamp-binding motif QADMF to QLDLF);DNA sliding clamp β;exonuclease ε (clamp-binding motif QTSMAF to … (Escherichia coli;Escherichia …, UniProt P10443;P0A988;P03007;P06710 1-1160;1-366;1-243;500-643, A921L;M923L||T183L;M185L;A186P;F187L|)); assay: cryo-EM; 3 mM Mg acetate; 8.0 Å DNA-bound map (7.3 Å for class without visible tail/τ500); EMSA: 20 mM Tris pH 7.5, 4% glycerol, 5 mM DTT, 40 μg/ml BSA, 40 mM K glutamate, 10 min room temperature, native 6% gel; cryo-EM: 25 mM Hepes pH 7.5, 50 mM K glutamate, 3 mM Mg acetate, 2 mM DTT, ~4 μM complex + 20 μM DNA, room temperature, then Tween 20; settings: protein: recombinant;recombinant;recombinant;recombinant; tags: ;;;His-tag removed (HRV 3C); copies: 1;2;1;1; 25 bp duplex, 5' overhang 4 nt on template strand

B1: τ500 (the polymerase-binding domain of τ: residues 500–643) (domain or fragment, E. coli, UniProt P06710 500-643, looked up)
chain: ALEHEKTPELAAKLAAEAIERDPWAAQVSQLSLPKLVEQVALNAWKEESDNAVCLHLRSSQRHLNNRGAQQKLAEALSMLKGSTVELTIVEDDNPAVRTPLEWRQAIYEEKLAQARESIIADNNIQTLRRFFDAELDEESIRPI
notes: PDB 2AYA (NMR) holds residues 500-621 only; His-tags were removed with human rhinovirus 3C protease; also called τc; C-terminal domain of the clamp loader subunit τ; source: E. coli (DE3) BL21, purified (Histrap HP, Resource S, Superdex 75)
binding result [1]: binds

B2: 25 bp primer-template with 4 nt overhang (EMSA) (dsDNA)
DNA 1: TCAGGAGTCCTTCGTCCTAGTACTACTCC
DNA 2: GGAGTAGTACTAGGACGAAGGACTC
modifications: phosphorothioate at 3' terminal bond (primer; strand implied)
binding result [2]: binds | binding result [3]: binds

B3: E. coli proofreading exonuclease ε with improved clamp binding motif (exonuclease^QLSLPL) (enzyme, UniProt P03007 1-243, looked up)
chain: MSTAITRQIVLDTETTGMNQIGAHYEGHKIIEIGAVEVVNRRLTGNNFHVYLKPDRLVDPEAFGVHGIADEFLLDKPTFAEVADEFMDYIRGAELVIHNAAFDIGFMDYEFSLLKRDIPKTNTFCKVTDSLAVARKMFPGKRNSLDALCARYEIDNSKRTLHGALLDAQILAEVYLAMTGGQLSLPLAMEGETQQQQGEATIQRIVRQASKLRVVFATDEEIAAHEARLDLVQKKGGSCLWRA
notes: DNA polymerase III subunit ε (proofreading exonuclease), E. coli; residues 190-207 are a missing loop; source: E. coli (DE3) BL21, purified (as described in Toste Rêgo et al., 2013)
binding result [1]: binds | binding result [4]: binds

B4: 25 bp primer-template with 4 nt overhang (cryo-EM) (dsDNA)
DNA 1: TCAGGAGTCCTTCGTCCTAGTACTACTCC
DNA 2: GGAGTAGTACTAGGACGAAGGACTC
binding result [5]: binds
